For one experiment, the target named is RhoA (Homo sapiens) (UniProt P61586). The note with it: cited from earlier work.
Experiment [1] concerns the target human p75^NTR death domain (330–427) (human) (UniProt P08138). Nature of the experiment: SPR; p75NTR DD-His captured on NTA sensor chip via Ni2+; BIAcore T200, 22°C; 10 mM HEPES, 50 mM NaCl, 0.005% Surfactant P20, 0.02% BSA, pH 7.0; kinetic analysis, one binding site model. On the technique in general: SPR reads the build-up and loss of mass on a sensor chip optically.

The target of experiment [2] is T1, human p75^NTR death domain (330–427) (human), P08138.
T1 chain: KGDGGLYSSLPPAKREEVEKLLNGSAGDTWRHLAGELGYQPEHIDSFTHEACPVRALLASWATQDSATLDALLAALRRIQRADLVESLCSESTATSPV
Nature of the experiment: dynamic light scattering; p75NTR DD ~0.2 mM in phosphate buffer, pH 7.0, 22°C; apparent hydrodynamic radius. The note with it: remark: other sources report otherwise.

The next experiment addresses T2, human RhoGDI (2–204) (human, UniProt P52565 2-204).
T2 construct: 15N- or 13C,15N-labelled in some NMR samples; source: E. coli SoluBL21 (DE3), purified (Ni-NTA, gel filtration Superdex 75 and/or ion exchange)
T2 sequence (looked up): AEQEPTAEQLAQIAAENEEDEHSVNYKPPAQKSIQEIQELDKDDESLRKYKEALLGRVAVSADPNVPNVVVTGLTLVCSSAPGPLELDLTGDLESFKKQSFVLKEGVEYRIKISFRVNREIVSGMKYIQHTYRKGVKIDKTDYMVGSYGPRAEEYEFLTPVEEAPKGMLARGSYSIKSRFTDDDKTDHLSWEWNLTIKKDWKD
Kind of experiment: SPR; p75NTR DD-His captured on NTA sensor chip via Ni2+; BIAcore T200, 22°C; 10 mM HEPES, 50 mM NaCl, 0.005% Surfactant P20, 0.02% BSA, pH 7.0; kinetic analysis, one binding site model. The note with it: both partners purified.

The target of experiment [3] is T3, human RIP2 CARD (434–539) (human, UniProt O43353 434-539).
T3 construct: RIP2 kinase, human, caspase recruitment domain with C-terminal tail, residues 434-539; The results speak of a C-terminal tail Leu524-Met540 and of 107 amino acids, the methods of residues 434-539; also called RIP2 CARD (including C-terminal tail); source: E. coli SoluBL21 (DE3), purified (Ni-NTA, gel filtration Superdex 75 and/or ion exchange)
T3 sequence (O43353 434-539): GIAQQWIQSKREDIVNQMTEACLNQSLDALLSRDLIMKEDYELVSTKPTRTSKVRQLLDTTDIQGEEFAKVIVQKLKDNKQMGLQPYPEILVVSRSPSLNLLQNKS
Described as above. The following applies: both partners purified.

The target in experiment [4] is T4, p75^NTR DD tagged with EGFP(A206K) in its C-terminus (human).
T4 chain: T1 chain
Nature of the experiment: FRET or BRET; homo-FRET fluorescence anisotropy of p75NTR DD-EGFP diluted serially in 50 mM phosphate buffer pH 7.0, room temperature; fit to a monomer-dimer equilibrium; apparent; dimer to monomers. The following applies: remark: other sources report otherwise.

Chain of RhoA (Homo sapiens) (P61586 1-190): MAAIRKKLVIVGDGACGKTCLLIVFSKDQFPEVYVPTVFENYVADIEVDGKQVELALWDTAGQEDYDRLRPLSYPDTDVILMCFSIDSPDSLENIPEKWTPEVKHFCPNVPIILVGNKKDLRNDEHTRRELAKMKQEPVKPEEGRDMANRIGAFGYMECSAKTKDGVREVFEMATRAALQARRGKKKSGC

With RhoGDI (from UniProt P52565), the Kd in the experiment with RhoA (Homo sapiens) was 170 nM.

In experiment [1], “RIP2 CARD ΔC mutant lacking the C-terminal tail (domain or fragment)” had a Kd of 58.7 nM.

B1: human p75^NTR death domain (330–427), P08138 330-427 (domain or fragment)
chain: T1 chain
B1: in experiment [2], the stoichiometry N – broadly, a count of units in the complex or per binding partner – was 2.

B2: human p75^NTR death domain (330–427) (domain or fragment, UniProt P08138 330-427, looked up)
chain: T1 chain
notes: p75 neurotrophin receptor (NGFR, TNFRSF16), human, death domain, residues 330-427; 15N- or 13C,15N-labelled in some NMR samples; Monomer or dimer depending on the buffer; also called p75^NTR DD; DD; source: E. coli SoluBL21 (DE3), purified (Ni-NTA, gel filtration Superdex 75 and/or ion exchange)
With B2, in the experiment with human RhoGDI (2–204), the Kd is 827 ± 338 nM, the koff (commonly the first-order rate constant of dissociation) was found to be 0.05 s⁻¹ and the kon (usually the second-order rate constant of association) stood at 60000 ± 10000 M⁻¹ s⁻¹. Also, in experiment [3], the Kd was found to be 4.67 ± 0.7 nM, the koff was 0.00332 s⁻¹ and the kon was found to be 720000 ± 340000 M⁻¹ s⁻¹.

B3: p75^NTR DD tagged with EGFP(A206K) in its C-terminus (domain or fragment)
chain: T1 chain
modifications: here or on the partner: C-terminal EGFP(A206K) carrier left out; limits of this fusion are not given, so the paper's own DD construct (330-427) is used / C-terminal EGFP(A206K) carrier left out; limits of this fusion are n
For B3, the Kd in experiment [4] turned out to be 49000 nM.
